This is an account of results in patent US7820790B2, “IL-6 binding proteins” (Amgen Mountain View Inc., priority 2005, dated 2010).

One assay deals with T1, IL-6R (Homo sapiens, UniProt P08887).
T1 sequence (P08887 20-468): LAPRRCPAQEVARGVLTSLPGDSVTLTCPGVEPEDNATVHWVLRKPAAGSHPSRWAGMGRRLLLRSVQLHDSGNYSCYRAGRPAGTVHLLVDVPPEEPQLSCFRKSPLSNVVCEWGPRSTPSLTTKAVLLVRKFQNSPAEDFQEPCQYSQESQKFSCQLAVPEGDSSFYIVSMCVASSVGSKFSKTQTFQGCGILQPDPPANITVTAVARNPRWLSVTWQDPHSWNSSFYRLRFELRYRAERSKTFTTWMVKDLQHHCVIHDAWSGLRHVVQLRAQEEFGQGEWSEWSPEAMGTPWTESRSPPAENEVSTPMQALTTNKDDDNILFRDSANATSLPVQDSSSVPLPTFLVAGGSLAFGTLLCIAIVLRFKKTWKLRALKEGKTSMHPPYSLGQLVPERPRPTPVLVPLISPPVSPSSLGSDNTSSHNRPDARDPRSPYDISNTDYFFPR
The note with it: dose-dependent manner; Nishimoto et al; cited from earlier work.

The test system of assay [1] is Human heparinized-whole blood. Description: IL-6 stimulation of IgE in human whole blood. In kind it is cell-based. The note with it: 50 ng/ml IL-6, 6.5 hr; compared to unstimulated controls or anti-IL-6 mAb controls. The method, then: Human heparinized-whole blood was obtained from six normal individuals from Stanford University Blood Bank. The avimer used in these experiments was generated as described in the above examples.
Briefly, 500 ul of heparinized human blood from several donors was cultured in 12×75 mm tubes or individual wells of a 24 well plate in the presence of 50 ng/ml of human IL-6; exemplary IL-6/IgG binding tetramers, a negative control avimer, 0.01-600 nM; anti-IL-6 monoclonal antibody (Clone 6708-111, R&D Systems) or mouse IgG1 isotype control antibody (eBioscience), 3, 10 or 30 ug/ml, or no inhibitors. Inhibitors or controls were diluted in RPMI1640+10% human AB serum before addition to the cultures. Final volume was 1 ml per sample.
Samples were incubated for 6.5 hr at 37° C. with 5% CO2. Samples were removed from incubator and centrifuged at 1500 rpm for 10 minutes at room temperature. Plasma samples were divided in two portions and one set was shipped to Rules Based Medicine for determination of the concentrations of IL-6- and avimer-regulated analytes. The second set of plasma samples was stored at −80° C.

The next assay relates to TF-1 cells. Description: Stimulation of TF-1 cell proliferation by rhIL-6 (control experiments). In kind it is cell-based, human. On the procedure:
TF-1, a GM-CSF dependent human erythroleukemia cell line, was purchased from ATCC(CRL-2003). IL-6 is a potent stimulator of TF-1 cell proliferation. The use of TF-1 cells for determining efficacy of IL-6, IL-6R, and/or gp130 inhibitors is well-established in the art.
TF-1 cells were maintained in growth medium (RPMI 1640 supplemented with 50 uM 2-ME, antibiotic-antimycotic), 10% FBS and 5 ng/ml hGM-CSF (Leukine). Prior to assay, TF-1 cells were washed and cultured overnight in growth medium plus 1% FBS and Leukine. TF-1 cells were then washed three times with growth medium plus 1% FBS, without Leukine prior to the assay.
TF-1 cells (1×10^4/well) were cultured in the presence or absence of the anti-IL-6 inhibitors-hIL-6 mixture in a 96-well flat bottom plate (Becton Dickinson) in a final volume of 200 ul/well for 40 hr in a humidified incubator at 37° C., 5% CO2. Cells were pulse-labeled with 1 uCi/well of [^3H]-Thymidine (Amersham Biosciences) during the final 16 hr of culture. Plates were harvested with a semiautomatic cell harvester (Tomtec, Inc.) and [^3H]-Thymidine incorporation was measured using a Microbeta-counter (Wallac-Perkin Elmer). Results are expressed as average cpm from triplicate wells.
Control experiments determined 0.2 ng/mL as the EC50 of rhIL-6 for stimulation of TF-1 cell proliferation.

As for “MRA: humanized anti-IL-6R antibody (MRA)”, in the assay with IL-6R, the HDL increase is roughly 26% and the LDL increase was 12-23%.
Consider “rhIL-6: recombinant human IL-6 (R&D Systems)”, for which, in assay [1], the “increase of IgE concentration in supernatants” value is 2-3 fold. Also, the “EC50 for stimulation of TF-1 cell proliferation” value in the assay with TF-1 cells amounted to 0.2 ng/mL.
